The results in this text go back to article PMC11148069 (The EMBO Journal, 2024).

Data set [1] has as its target T1, His14-NEDD8-tagged APD of xtNup98 (715–866) (Xenopus tropicalis, UniProt A0A1B8XZT4).
T1 construct: held on the Ni2+ chelate matrix by the tag; the tag was cleaved by NEDP1 only for elution; also called Nup98-APD; immobilized APD; source: E. coli NEB Express, purified
Kind of data set: pull-down; His14-NEDD8-APD of xtNup98 immobilised on Ni2+ chelate matrix, incubated with xNup98-Nb1t or xhNup98-Nb2i, then xNup96(1–20)-RFP or xtNup88(2–500) added; eluted by NEDP1; SDS-PAGE/Coomassie. The settings on record: both partners purified.

For data set [2], the target named is T2, Xenopus Nup98, endogenous (Xenopus laevis (egg extract, assumed), UniProt A0A8J1MFV7).
T2 construct: Nup98, the cut product of the Nup98–Nup96 fusion protein (Nup196); the egg extract contains the already cleaved entities; also called xNup98; source: endogenous, soluble fraction of Xenopus egg extract; also as recruited from the extract to NPCs
Kind of data set: immunostaining of cells or tissue; digitonin-semi-permeabilized sfGFP-Nup107 HeLa cells incubated 2 h at RT with buffer or Xenopus egg extract, energy mix and 35 nM fluorescent tracking nanobodies; Airyscan confocal microscopy. The following applies: one partner purified.

The target in data set [3] is T3, recombinant human Nup93 target (BLI) (human, UniProt Q8N1F7).
T3 construct: Nup93, human; the immunogen was the Nup93 α-solenoid domain; also called hNup93; source: E. coli NEB Express, purified
Kind of data set: BLI; nanobodies (biotin-[PEG]3-maleimide on two ectopic cysteines) immobilised on High Precision Streptavidin sensors; target proteins at 30–100 nM; 25 °C; PBS pH 7.4, 0.02% Tween-20, 0.1% BSA; apparent KDs. The settings on record: both partners purified.

Data set [4] deals with T4, recombinant Xenopus Nup93 target (BLI) (Xenopus, UniProt Q7ZX96).
T4 construct: Nup93, Xenopus; the immunogen was the Nup93 α-solenoid domain; also called xNup93; source: E. coli NEB Express, purified
The data set is described as above. The settings on record: both partners purified.

Data set [5] has as its target T5, Xenopus Nup93, endogenous (Xenopus (endogenous in egg extract), UniProt Q7ZX96).
T5 construct: Nup93 of Xenopus egg extract; also called xNup93; source: endogenous, soluble fraction of Xenopus egg extract
Kind of data set: pull-down; (biotin)-Avi-SUMO^Eu1-nanobodies on streptavidin-agarose, incubated with HeLa lysate or soluble fraction of Xenopus egg extract, 40 min, 4 °C; eluted by SENP^EuB; SDS-PAGE/Coomassie, identities confirmed by mass spectrometry. The following applies: one partner purified.

For another data set, the target named is T6, human Nup93, endogenous (human (endogenous in HeLa), UniProt Q8N1F7).
T6 construct: Nup93, human; also called hNup93; source: endogenous, HeLa lysate
The description is as above. The following applies: one partner purified.

The target of data set [6] is T7, xNup93(168–820), α-solenoid domain of Xenopus laevis Nup93 (Xenopus laevis, UniProt Q7ZX96).
T7 construct: also called Nup93 α-solenoid domain; source: E. coli NEB Express, purified, untagged
Kind of data set: cryo-EM structure; equimolar trimeric xNup93(168–820)·xhNup93-Nb4i·xNup93-Nb2t complex; 4.4 Å reconstruction. The following applies: both partners purified.

Data set [7] has as its target T8, xNup98-APD (residues 714–864), autoproteolytic domain of Xenopus tropicalis Nup98 (Xenopus tropicalis).
T8 construct: also called APD of Xenopus tropicalis xNup98; source: E. coli NEB Express, purified, untagged
T8 chain: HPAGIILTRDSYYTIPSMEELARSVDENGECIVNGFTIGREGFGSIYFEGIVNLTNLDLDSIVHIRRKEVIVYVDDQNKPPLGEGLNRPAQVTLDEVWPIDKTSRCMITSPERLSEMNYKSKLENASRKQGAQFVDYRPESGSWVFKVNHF
Briefly: crystal structure; xNup98-APD(714–864) with xhNup98-Nb2i or xhNup98-Nb3i; 2.5% PEG6000, 25% PEG MME500, 100 mM Tris/HCl pH 9. The settings on record: both partners purified.

Data set [8] deals with the molecule itself. Kind of data set: crystal structure; hNup35(173–248)·xhNup35-Nb1t complex; 0.05 M HEPES pH 6.5, 25% PEG400, 0.05 M NaCl, 0.01 M MgCl2.
Data set [9] has as its target T9, hNup35 (residues 173–248), RRM domain (human, UniProt Q8NFH5).
T9 construct: Nup35 (also called Nup53 or MP44), human, RRM domain, residues 173-248; also called homodimeric RRM domain of Homo sapiens (h)Nup35; Nup35 RRM; source: E. coli NEB Express, purified, untagged
The description is as above. The settings on record: both partners purified.

The target in a further data set is T10, human Nup35, endogenous (Homo sapiens (HeLa), UniProt Q8NFH5).
T10 construct: Nup35, human; also called hNup35; source: endogenous, in NPCs of HeLa cells
Briefly: immunostaining of cells or tissue; sfGFP-Nup107 HeLa cells, PFA-fixed and Triton X-100-permeabilized or unfixed and digitonin-semi-permeabilized; 35 nM Alexa Fluor 647-labelled nanobody, 30 min, RT; confocal microscopy. The following applies: one partner purified.

For data set [10], the target named is T11, Xenopus Nup35, endogenous (Xenopus laevis (egg extract), UniProt Q6INW0).
T11 construct: Nup35 of Xenopus egg extract; also called xNup35; source: endogenous, from Xenopus egg extract, in newly assembled NPCs
Briefly: immunostaining of cells or tissue; digitonin-semi-permeabilized sfGFP-Nup107 HeLa cells incubated 2 h at RT with buffer or Xenopus egg extract, energy mix and 35 nM fluorescent tracking nanobodies; Airyscan confocal microscopy. The settings on record: one partner purified.

The target of a further data set is T12, human Nup98, endogenous (human (endogenous in HeLa), UniProt P52948).
T12 construct: Nup98, the cut product of the Nup98–Nup96 fusion protein, human; also called hNup98; source: endogenous, HeLa lysate; also in NPCs of semi-permeabilized HeLa cells
Briefly: pull-down; (biotin)-Avi-SUMO^Eu1-nanobodies on streptavidin-agarose, incubated with HeLa lysate or soluble fraction of Xenopus egg extract, 40 min, 4 °C; eluted by SENP^EuB; SDS-PAGE/Coomassie, identities confirmed by mass spectrometry. The following applies: one partner purified.

Data set [11] concerns the target T2, Xenopus Nup98, endogenous. Described as above. The settings on record: one partner purified.

T7 sequence (Q7ZX96 168-820): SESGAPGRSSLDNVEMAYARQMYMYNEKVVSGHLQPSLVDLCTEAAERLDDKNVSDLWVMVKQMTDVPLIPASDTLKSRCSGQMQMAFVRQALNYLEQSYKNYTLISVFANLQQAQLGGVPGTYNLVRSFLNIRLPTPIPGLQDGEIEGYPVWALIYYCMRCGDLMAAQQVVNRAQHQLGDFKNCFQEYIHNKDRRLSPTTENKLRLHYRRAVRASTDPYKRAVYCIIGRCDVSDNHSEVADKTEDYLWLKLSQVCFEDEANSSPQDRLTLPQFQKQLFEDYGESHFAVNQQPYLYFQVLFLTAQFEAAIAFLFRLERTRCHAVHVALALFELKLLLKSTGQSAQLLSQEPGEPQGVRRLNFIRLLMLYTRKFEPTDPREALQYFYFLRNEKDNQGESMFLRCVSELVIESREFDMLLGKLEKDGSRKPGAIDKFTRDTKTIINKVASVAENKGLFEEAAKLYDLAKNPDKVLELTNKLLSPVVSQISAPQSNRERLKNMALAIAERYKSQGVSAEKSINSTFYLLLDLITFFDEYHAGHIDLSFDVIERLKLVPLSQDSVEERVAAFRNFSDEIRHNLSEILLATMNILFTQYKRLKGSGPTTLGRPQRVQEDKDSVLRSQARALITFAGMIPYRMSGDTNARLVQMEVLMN
T12 sequence (P52948 1-880): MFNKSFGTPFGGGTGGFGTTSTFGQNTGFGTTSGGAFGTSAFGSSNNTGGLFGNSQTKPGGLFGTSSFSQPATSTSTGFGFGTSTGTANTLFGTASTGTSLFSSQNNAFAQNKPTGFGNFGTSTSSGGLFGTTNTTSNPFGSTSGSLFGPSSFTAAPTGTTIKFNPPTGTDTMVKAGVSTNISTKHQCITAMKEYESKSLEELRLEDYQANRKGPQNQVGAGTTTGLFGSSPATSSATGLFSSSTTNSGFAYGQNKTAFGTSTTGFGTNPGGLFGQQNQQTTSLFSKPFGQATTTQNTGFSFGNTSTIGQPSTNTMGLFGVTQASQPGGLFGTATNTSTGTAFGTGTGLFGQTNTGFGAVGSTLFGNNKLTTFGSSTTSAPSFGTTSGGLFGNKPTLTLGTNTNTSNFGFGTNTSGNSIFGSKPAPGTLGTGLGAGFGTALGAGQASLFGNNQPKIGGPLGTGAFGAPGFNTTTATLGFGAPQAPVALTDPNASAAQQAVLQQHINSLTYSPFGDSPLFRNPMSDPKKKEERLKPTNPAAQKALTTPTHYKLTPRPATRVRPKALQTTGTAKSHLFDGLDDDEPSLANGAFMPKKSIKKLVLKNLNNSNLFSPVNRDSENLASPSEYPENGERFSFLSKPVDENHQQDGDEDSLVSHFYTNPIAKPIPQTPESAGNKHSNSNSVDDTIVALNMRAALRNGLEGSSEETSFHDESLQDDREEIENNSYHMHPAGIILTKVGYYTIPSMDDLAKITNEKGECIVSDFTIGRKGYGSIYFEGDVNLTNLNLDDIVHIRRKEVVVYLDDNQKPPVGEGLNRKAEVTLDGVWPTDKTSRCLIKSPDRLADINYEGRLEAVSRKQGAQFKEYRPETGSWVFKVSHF
T3 sequence (Q8N1F7 whole entry, the tested form may be a part): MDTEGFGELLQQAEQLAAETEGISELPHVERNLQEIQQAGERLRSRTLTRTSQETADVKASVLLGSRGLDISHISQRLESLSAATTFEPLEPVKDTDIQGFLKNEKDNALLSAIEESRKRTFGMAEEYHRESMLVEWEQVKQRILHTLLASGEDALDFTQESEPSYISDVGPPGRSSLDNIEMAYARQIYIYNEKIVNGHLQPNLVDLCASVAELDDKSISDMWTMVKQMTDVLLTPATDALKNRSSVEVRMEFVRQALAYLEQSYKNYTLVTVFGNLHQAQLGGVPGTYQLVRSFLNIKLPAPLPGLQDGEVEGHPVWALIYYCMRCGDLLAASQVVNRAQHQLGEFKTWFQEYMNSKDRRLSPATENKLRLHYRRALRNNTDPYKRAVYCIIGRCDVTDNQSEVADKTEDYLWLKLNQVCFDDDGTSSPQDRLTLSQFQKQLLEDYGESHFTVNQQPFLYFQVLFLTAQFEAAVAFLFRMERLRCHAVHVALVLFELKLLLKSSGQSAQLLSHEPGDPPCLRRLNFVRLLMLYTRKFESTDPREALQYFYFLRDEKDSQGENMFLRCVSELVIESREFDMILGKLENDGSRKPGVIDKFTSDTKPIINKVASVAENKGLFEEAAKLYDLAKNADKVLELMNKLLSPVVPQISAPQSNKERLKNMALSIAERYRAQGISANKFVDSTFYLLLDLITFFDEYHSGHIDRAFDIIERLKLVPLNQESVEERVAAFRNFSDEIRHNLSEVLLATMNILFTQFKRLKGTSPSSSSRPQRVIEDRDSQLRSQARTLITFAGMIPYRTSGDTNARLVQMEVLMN
T6 sequence (Q8N1F7 whole entry): as the sequence (Q8N1F7 whole entry, the tested form may be a part) above
T4 sequence (Q7ZX96 whole entry, the tested form may be a part): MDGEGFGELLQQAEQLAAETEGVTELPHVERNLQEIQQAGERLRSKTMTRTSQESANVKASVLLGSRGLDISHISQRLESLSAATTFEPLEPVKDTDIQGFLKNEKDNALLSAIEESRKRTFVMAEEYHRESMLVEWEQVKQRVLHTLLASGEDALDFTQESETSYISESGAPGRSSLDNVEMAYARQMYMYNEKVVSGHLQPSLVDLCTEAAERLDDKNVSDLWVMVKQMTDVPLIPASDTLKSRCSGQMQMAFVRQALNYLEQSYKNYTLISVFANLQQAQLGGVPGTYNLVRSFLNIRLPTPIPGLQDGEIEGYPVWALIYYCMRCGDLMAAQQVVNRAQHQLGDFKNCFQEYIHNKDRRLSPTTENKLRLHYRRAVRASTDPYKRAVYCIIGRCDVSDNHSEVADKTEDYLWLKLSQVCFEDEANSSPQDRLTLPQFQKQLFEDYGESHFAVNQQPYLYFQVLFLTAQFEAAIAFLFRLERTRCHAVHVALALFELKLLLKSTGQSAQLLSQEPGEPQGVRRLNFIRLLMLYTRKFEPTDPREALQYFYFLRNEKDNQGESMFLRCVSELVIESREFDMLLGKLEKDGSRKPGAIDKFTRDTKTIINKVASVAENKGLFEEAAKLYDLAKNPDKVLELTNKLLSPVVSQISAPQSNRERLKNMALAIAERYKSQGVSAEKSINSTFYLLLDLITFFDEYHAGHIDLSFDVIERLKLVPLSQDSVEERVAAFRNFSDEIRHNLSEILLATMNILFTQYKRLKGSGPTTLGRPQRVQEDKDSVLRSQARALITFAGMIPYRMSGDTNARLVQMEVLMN
T5 sequence (Q7ZX96 whole entry): as the sequence (Q7ZX96 whole entry, the tested form may be a part) above
T10 sequence (Q8NFH5 whole entry): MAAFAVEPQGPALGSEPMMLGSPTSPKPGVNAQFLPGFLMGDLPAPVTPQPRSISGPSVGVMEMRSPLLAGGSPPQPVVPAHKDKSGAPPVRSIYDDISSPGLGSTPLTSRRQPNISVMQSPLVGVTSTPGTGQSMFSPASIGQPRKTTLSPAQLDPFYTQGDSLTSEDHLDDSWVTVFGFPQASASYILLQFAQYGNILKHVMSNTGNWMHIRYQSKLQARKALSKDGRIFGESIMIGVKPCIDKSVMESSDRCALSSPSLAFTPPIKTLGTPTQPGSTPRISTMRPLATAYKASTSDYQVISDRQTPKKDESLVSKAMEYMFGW

B1: xNup98-Nb1t (as added in the binding assay of Fig. 11C) (VHH)
VHH: QVQLVESGGGPVEAGGSLRLSCAASGRSFSNSVMAWFRQAPGKEREFLSVLNWSSGRTSIADSVKGRFTMSRDPAKITVYLQMNGLKPEDTAVYYCAASNRGSLYTLDNQNRYEDWGQGTQVTVSS
notes: they are in PDB 5E0Q (xNup98-APD·xNup98-Nb1t complex, Pleiner et al, 2015); also called tracking nanobody xNup98-Nb1t; source: E. coli SHuffle, purified
For the molecule B1, the binding result in [1] is reported as “binds”.

B2: xNup98-Nb1t, fluorophore-labelled (VHH)
VHH: B1 VHH
notes: as the VHH of m10 with engineered cysteines; source: E. coli SHuffle, purified, labelled with maleimide dye
With B2, in data set [2], the binding result is given as “binds”.

B3: xhNup93-Nb4i, biotinylated for BLI (VHH)
VHH: QVQLVESGGGVVQTGDSLMLSCTVSGHTIDNWAMGWFRQTPRKQREFVAAIDKRGTGAIYGNSVKGRFTVSRDNAKNMVYLRMNSLKPEDTAVYFCAVDQLNAGLGDVSYDYDYWGQGTQVTVSS
notes: as the VHH of m1 with two ectopic cysteines; source: E. coli SHuffle, purified
With B3, the binding result in data set [3] and in [4] was “binds” each time.

B4: (biotin)-Avi-SUMO^Eu1-xhNup93-Nb4i (VHH)
VHH: B3 VHH
notes: as the VHH of m1; the tag was cleaved by SENP^EuB only for elution; source: E. coli SHuffle, purified; not shown: Avi (biotinylated), N-terminal, kept; SUMO^Eu1, N-terminal, kept
For B4, the binding result is on record as “binds” in data set [5] and “binds” in the data set with human Nup93, endogenous.

B5: xhNup93-Nb4i (VHH)
VHH: B3 VHH
notes: they are in PDB 8CDS (unliganded nanobody) and PDB 7ZOX (complex with xNup93); form used for the cryo-EM complex; for the unliganded crystal it was expressed as a His14-bdSUMO fusion and cleaved; source: E. coli SHuffle, purified (Ni2+ chelate, NEDP1 protease elution, SEC)
On to B5, for which the binding result in data set [6] is given as “binds”.

B6: xNup93-Nb2t (VHH)
VHH: DVQLVESGGGLVQPGGSLRLSCVASGFTFSRVGMGWVRQAPGKGLEWVSDINASGGTGYADSVKGRFAISRDNAKNTLYLQMNRLKPEDTAVYYCAKMMDTAMIEAGIIKPAGQGTQVTVSS
notes: they are in the PDB entry of the unliganded nanobody (printed as 8CDT in the methods and 8CD7 in the data availability) and in PDB 7ZOX; purified untagged in the cryo-EM complex; for the unliganded crystal expressed as a His14-bdSUMO fusion and cleaved; also called tracking nanobody xNup93-Nb2t; source: E. coli SHuffle, purified
For B6, the binding result in data set [6] is on record as “binds”.

B7: xhNup98-Nb3i (VHH)
VHH: QVQLVESGGGLVQAGGSLRLSCAASGRTFSTYAMGWFRQAPGKEREFVSACSWSGGITRYADSVKGRFTISRDNAKNTVYLQMNSLKPEDTAVYYCASAASSAAYSGAYYYTSYYDYWGQGTQVTVSS
notes: they are in PDB 7NOW (complex with xNup98-APD); form of the crystal structure; source: E. coli SHuffle, purified (Ni2+ chelate, NEDP1 protease elution, SEC)
On to B7, for which the binding result in data set [7] is listed as “binds”.

B8: hNup35 (residues 173–248), RRM domain (domain or fragment, human, UniProt Q8NFH5 173-248, looked up)
chain: DSWVTVFGFPQASASYILLQFAQYGNILKHVMSNTGNWMHIRYQSKLQARKALSKDGRIFGESIMIGVKPCIDKSV
notes: Nup35 (also called Nup53 or MP44), human, RRM domain, residues 173-248; also called homodimeric RRM domain of Homo sapiens (h)Nup35; Nup35 RRM; source: E. coli NEB Express, purified, untagged
For the molecule B8, in [8], the binding result is on record as “binds”.

B9: xhNup35-Nb1t (VHH)
VHH: QVQLVESGGGLVQAGGSLRLSCVGTGNISSAYTMAWYRQAAGKEREVVAGILNGGSTHYADSVKGRFTISRDNAKNTVYLQMNSLQPEDTGVYCCHVVIESTRFVYDHYWGQGTRVTVSS
notes: they are in PDB 8OZB (complex with the human Nup35 RRM homodimer); form of the crystal structure; also called cross-specific anti-Nup35 nanobody; source: E. coli SHuffle, purified (Ni2+ chelate, NEDP1 protease elution, SEC)
Regarding B9, the binding result in data set [9] is listed as “binds”.

B10: xhNup35-Nb1t, fluorophore-labelled (VHH)
VHH: B9 VHH
notes: as the VHH of m12 with engineered cysteines; source: E. coli SHuffle, purified, labelled with maleimide dye
Turning to B10, the binding result is reported as “binds” in the data set with human Nup35, endogenous and “binds” in data set [10].

B11: xhNup98-Nb2i (VHH)
VHH: QVQLVESGGGLAKPGGSLRLSCVATGTFRSMEDVGWYRQAPGKDRELVAEITTLGKVTYADSVKGRFTISRDDAKNAVYLQMSDLKSEDTAVYYCNIEADQTKGIGYVVYPYWGQGTRVTVSS
notes: they are in PDB 7NQA (complex with xNup98-APD); form of the crystal structure; also called xNup98-Nb2i; source: E. coli SHuffle, purified (Ni2+ chelate, NEDP1 protease elution, SEC)
Consider B11, for which, in [7], the binding result is “binds”.

B12: xhNup98-Nb2i (as added in the binding assay of Fig. 11C) (VHH)
VHH: B11 VHH
notes: as the VHH of m5; source: E. coli SHuffle, purified
On to B12, for which the binding result in data set [1] is on record as “binds”.

B13: (biotin)-Avi-SUMO^Eu1-xhNup98-Nb2i (VHH)
VHH: B11 VHH
notes: as the VHH of m5; the tag was cleaved by SENP^EuB only for elution; source: E. coli SHuffle, purified; not shown: Avi (biotinylated), N-terminal, kept; SUMO^Eu1, N-terminal, kept
On to B13, for which the binding result was “binds” in the data set with human Nup98, endogenous and “binds” in data set [11].
